From patent publication US20030170807A1 (Johns Hopkins, published 2003)

How the values were obtained:
[1] = target: mGluR of mouse cerebellar Purkinje cells (mouse) (UniProt P97772); assay: cell-based or functional assay
[2] = target: T1, GKAP 1, native, from rat brain extracts (rat, UniProt P97836 1-992); assay: GST pull-down from rat brain extracts
T1 construct: mature
T1 sequence (looked up): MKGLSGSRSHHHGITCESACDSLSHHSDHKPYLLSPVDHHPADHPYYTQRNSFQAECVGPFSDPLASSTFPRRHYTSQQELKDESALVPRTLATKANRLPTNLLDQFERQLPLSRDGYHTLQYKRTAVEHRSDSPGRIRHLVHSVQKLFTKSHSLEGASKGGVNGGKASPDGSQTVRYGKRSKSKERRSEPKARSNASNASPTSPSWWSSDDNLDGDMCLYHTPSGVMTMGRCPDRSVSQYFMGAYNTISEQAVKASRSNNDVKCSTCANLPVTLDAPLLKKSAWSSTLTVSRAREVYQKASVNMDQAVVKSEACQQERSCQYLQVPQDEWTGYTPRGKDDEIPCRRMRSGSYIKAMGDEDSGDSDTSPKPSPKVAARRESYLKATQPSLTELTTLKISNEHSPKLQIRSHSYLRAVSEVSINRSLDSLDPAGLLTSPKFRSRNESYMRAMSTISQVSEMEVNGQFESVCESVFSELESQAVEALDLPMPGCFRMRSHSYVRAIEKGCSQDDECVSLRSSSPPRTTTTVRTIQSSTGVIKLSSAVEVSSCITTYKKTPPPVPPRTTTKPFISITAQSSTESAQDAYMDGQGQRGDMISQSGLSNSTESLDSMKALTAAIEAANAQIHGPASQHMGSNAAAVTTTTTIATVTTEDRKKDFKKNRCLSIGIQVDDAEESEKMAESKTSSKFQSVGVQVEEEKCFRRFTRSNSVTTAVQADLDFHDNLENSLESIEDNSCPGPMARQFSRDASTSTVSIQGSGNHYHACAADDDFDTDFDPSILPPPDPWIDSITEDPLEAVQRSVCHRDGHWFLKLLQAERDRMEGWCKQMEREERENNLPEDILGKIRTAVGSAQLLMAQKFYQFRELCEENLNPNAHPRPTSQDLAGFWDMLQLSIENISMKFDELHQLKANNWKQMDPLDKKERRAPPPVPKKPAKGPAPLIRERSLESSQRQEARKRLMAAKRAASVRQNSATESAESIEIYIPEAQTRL

Sequence of mGluR of mouse cerebellar Purkinje cells (mouse) (P97772 21-1199): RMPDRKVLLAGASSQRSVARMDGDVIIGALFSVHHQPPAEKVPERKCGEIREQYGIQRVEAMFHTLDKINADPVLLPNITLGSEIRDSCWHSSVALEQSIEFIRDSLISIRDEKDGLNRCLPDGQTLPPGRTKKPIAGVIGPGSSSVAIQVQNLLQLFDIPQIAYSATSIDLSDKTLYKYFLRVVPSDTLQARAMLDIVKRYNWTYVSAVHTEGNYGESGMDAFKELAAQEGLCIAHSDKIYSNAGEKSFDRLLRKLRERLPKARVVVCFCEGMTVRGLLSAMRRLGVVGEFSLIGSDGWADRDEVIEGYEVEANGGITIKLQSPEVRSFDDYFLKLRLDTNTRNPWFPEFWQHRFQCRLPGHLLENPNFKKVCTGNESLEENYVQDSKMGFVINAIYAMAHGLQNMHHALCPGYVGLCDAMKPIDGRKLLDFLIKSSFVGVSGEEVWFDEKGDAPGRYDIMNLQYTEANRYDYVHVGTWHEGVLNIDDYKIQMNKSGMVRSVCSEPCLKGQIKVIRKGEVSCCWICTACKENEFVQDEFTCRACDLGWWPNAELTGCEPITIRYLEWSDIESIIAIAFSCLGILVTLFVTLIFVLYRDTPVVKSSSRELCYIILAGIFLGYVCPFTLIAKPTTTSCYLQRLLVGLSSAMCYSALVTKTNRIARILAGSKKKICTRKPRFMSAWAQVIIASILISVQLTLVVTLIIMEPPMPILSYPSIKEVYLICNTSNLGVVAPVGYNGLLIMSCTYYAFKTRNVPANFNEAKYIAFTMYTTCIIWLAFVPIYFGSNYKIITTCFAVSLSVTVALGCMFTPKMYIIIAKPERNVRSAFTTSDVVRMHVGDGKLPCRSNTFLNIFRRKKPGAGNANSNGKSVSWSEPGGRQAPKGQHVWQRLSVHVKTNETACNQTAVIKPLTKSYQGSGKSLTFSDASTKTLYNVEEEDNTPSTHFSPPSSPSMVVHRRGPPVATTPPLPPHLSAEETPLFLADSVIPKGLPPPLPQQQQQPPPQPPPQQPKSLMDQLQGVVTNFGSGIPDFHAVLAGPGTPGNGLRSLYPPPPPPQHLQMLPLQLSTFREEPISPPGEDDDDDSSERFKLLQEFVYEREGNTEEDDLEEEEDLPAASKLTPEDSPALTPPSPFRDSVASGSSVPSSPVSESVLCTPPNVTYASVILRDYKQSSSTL

Molecule | mGluR-evoked Ca+2 response, amplitude [1] [nM] | mGluR-evoked Ca+2 response, latency [1] [s] | binding result [2]
IEG form of Homer 1: 186 amino acid amino-terminal fragment of Homer 1b (pRK5 Homer 1 IEG) (from UniProt Q9Z2Y3 1-198) | 170 | 10.5 | –
GST-GKAP(carboxy-terminal): carboxy-terminal 76 amino acids of GKAP1a fused to GST (other, UniProt P97836-5 591-666, looked up, domain: carboxy-terminal 76 amino acids; not shown: glutathione-S-transferase, fusion partner) MDPLDKKERRAPPPVPKKPAKGPAPLIRERSLESSQRQEARKRLMAAKRAASVRQNSATESAESIEIYIPEAQTRL | – | – | no binding
